The target in series [1] is T1, SSB_BA (Bacillus anthracis, UniProt Q81JI3 1-172).
T1 sequence: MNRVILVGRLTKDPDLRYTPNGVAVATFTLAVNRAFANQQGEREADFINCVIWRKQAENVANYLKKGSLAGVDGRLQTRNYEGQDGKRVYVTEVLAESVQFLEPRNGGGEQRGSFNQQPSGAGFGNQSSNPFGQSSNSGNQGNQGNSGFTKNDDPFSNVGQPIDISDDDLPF
Kind of series: FRET titration; […]) or 1 nM ([…]; FRET at 25 C; pH not given. To be noted: protein: recombinant; tags: none stated (pET29b); label: 5'-Cy5; 3'-Cy3.

The target of series [2] is SSB_EC (Escherichia coli, UniProt P0AGE0 2-178). Kind of series: FRET titration; 25 C, 40 nM DNA (200 nM in Results text); high FRET peak at 0.44 uM, (SSB)35 mode at >=1.1 uM; Anisotropy: buffer B (composition not in material), 25 mM KCl, 5 mM Mg2+, 25 C, 0.1 nM (Results) or 1 nM (Methods) Fl-(dT)20; temperature series 20-37 C with 25 mM NaCl and glycerol; salt series 0-200/250 mM NaCl at 25 C; FRET at 25 C; pH not given. To be noted: chain copies: 4; label: 5'-Cy5; 3'-Cy3.
Chain of SSB_EC (P0AGE0 2-178): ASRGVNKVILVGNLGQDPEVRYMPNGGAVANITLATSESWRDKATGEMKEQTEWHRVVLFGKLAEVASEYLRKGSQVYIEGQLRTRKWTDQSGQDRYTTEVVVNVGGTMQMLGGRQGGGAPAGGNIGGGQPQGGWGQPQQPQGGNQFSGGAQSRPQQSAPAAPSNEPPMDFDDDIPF

For series [3], the target named is T1, SSB_BA. Kind of series: fluorescence anisotropy; […]) or 1 nM ([…]; FRET at 25 C; pH not given. To be noted: protein: recombinant; tags: none stated (pET29b); label: 5'-fluorescein. A general note: Polarisation of emitted light reports the rotation of a fluorescent probe.

Experimental findings from publication PMC3464605, “Thermodynamic analysis of DNA binding by a Bacillus single stranded DNA binding protein” are described below.

Where “and” joins values, the source holds several entries; their conditions need not be identical. Equal values may be shown once.

B1: Cy5-(dT)70-Cy3 (ssDNA)
DNA: TTTTTTTTTTTTTTTTTTTTTTTTTTTTTTTTTTTTTTTTTTTTTTTTTTTTTTTTTTTTTTTTTTTTTT
For B1, the binding result in series [1] and in series [2] was “binds” throughout.

B2: Fl-(dT)20 (ssDNA)
DNA: TTTTTTTTTTTTTTTTTTTT
For B2, the Kd (as a rule, the constant that tells how readily two partners part at equilibrium) in series [3] is 1 nM and 1.2 nM.
